The values that follow come from the supplement of paper PMC9112550, “Optimization of the antimicrobial peptide Bac7 by deep mutational scanning” (BMC Biology, 2022).
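Further: peptides expressed intracellularly from a pBAD plasmid library in pooled LB shake-flask culture, induced with 0.3% L-arabinose, DNA abundance read by NGS, three biological replicates, DESeq2 with apeglm shrinkage.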

The test system of this data set is Escherichia coli TOP10. Briefly: shrunken log2 fold change of peptide-encoding DNA abundance (4.5 h post-induction vs induction); higher = less antimicrobial activity (less host growth inhibition). Conditions: time post-induction: 4.5 h; library: site-saturation at positions 5, 18, 19, 20.
On to RRIRFRPPRLPRPRPRPTPVPRP, for which the “shrunken log2 fold change” value was 0.706. The same measure for RRIRQRPPRLPRPRPRPWYLPRP: -0.176; for RRIRKRPPRLPRPRPRPGMTPRP: 0.129. The same measure for RRIRNRPPRLPRPRPRPMREPRP: 0.13; for RRIRMRPPRLPRPRPRPVDQPRP: 0.0463; for RRIRQRPPRLPRPRPRPELIPRP: -0.017. The same measure for RRIRKRPPRLPRPRPRPYKKPRP: -0.201; for RRIRVRPPRLPRPRPRPAEQPRP: 0.247; for RRIRDRPPRLPRPRPRPETAPRP: 1.15. As for RRIRDRPPRLPRPRPRPQLYPRP, the “shrunken log2 fold change” value is -0.162. Under RRIRRRPPRLPRPRPRPEAQPRP stands 0.253. The same measure for RRIRMRPPRLPRPRPRPQHNPRP: -0.605; for RRIRARPPRLPRPRPRPTIQPRP: 0.0396; for RRIRPRPPRLPRPRPRPGEGPRP: 0.349. Regarding RRIRVRPPRLPRPRPRPDRAPRP, the “shrunken log2 fold change” value was -0.0118. As to RRIRKRPPRLPRPRPRPVVAPRP, the “shrunken log2 fold change” value was 0.876.

As for RRIRERPPRLPRPRPRPEQVPRP, the “shrunken log2 fold change” value is -0.0135.

In the case of RRIRKRPPRLPRPRPRPFYQPRP, the “shrunken log2 fold change” value is -0.101.

Regarding RRIRSRPPRLPRPRPRPVENPRP, the “shrunken log2 fold change” value amounted to 0.0506. Under RRIRRRPPRLPRPRPRPREVPRP stands 0.442; under RRIRPRPPRLPRPRPRPEGDPRP, 0.39. The same measure for RRIRSRPPRLPRPRPRPRGQPRP: 0.197; for RRIRMRPPRLPRPRPRPSIMPRP: 0.23; for RRIRVRPPRLPRPRPRPVWEPRP: 0.0761. The same measure for RRIRMRPPRLPRPRPRPMNDPRP: 0.25; for RRIRVRPPRLPRPRPRPDYPPRP: -0.177; for RRIRKRPPRLPRPRPRPVKYPRP: 0.221. Consider RRIRERPPRLPRPRPRPSSNPRP, for which the “shrunken log2 fold change” value is -0.0512. For RRIRCRPPRLPRPRPRPHVQPRP, the “shrunken log2 fold change” value was -0.224. Under RRIRVRPPRLPRPRPRPRSNPRP stands 0.125; under RRIRWRPPRLPRPRPRPDETPRP, 0.0169; under RRIRFRPPRLPRPRPRPQRFPRP, 0.0542.

On to RRIRPRPPRLPRPRPRPVRSPRP, for which the “shrunken log2 fold change” value was 0.371. Under RRIRGRPPRLPRPRPRPMFHPRP stands 0.074. The same measure for RRIRFRPPRLPRPRPRPQDKPRP: -0.308; for RRIRKRPPRLPRPRPRPAHRPRP: 0.562. The same measure for RRIRRRPPRLPRPRPRPLWKPRP: 0.115; for RRIRNRPPRLPRPRPRPGIFPRP: -0.0122. For the sequence RRIRVRPPRLPRPRPRPDWIPRP, the “shrunken log2 fold change” value is -0.218. The same measure for RRIRIRPPRLPRPRPRPCWFPRP: -0.165; for RRIRARPPRLPRPRPRPFMHPRP: 0.229. The same measure for RRIRMRPPRLPRPRPRPKWVPRP: 0.466.

Consider RRIRARPPRLPRPRPRPAMPPRP, for which the “shrunken log2 fold change” value is -0.131. The same measure for RRIRFRPPRLPRPRPRPQGCPRP: -0.13; for RRIRYRPPRLPRPRPRPYWNPRP: -1.63. Turning to RRIRRRPPRLPRPRPRPLYIPRP, the “shrunken log2 fold change” value was -0.466. The same measure for RRIRVRPPRLPRPRPRPLHYPRP: -0.088; for RRIRARPPRLPRPRPRPYWPPRP: -0.00546. The same measure for RRIRLRPPRLPRPRPRPDVLPRP: -0.00959; for RRIRSRPPRLPRPRPRPFEEPRP: -0.345.
